# Reference: PMC6033896 (Scientific Reports, 2018)
# Target: T1, fluorescent labelled Bid BH3 peptide (fluorescent label (Flu- or FAM-), position not stated)
# T1 construct: BH3 peptide derived from the pro-apoptotic protein Bid; The methods name two probes (Flu-Bid with Mcl-1); the two probes may differ in label and limits; also called Flu-Bid; FAM-Bid
# Assay: fluorescence polarisation; direct binding of the fluorescent Bid probe to recombinant protein; Ex 485 nm, Em 530 nm, room temperature; buffer of the Kd determination not told apart from the two competitive assay buffers
# Settings: both partners purified
row,Binder,Kd [nM]
1,recombinant Bcl-xL protein (natural protein) MSQSNRELVVDFLSYKLSQKGYSWSQFSDVEENRTEAPEGTESEVKQALREAGDEFELRYRRAFSDLTSQLHITPGTAYQSFEQVVNELFRDGVNWGRIVAFFSFGGALCVESVDKEMQVLVSRIAAWMATYLNDHLEPWIQENGGWDTFVELYGNNAAAESRKGQERFN,20 ± 2.3
2,recombinant Mcl-1 protein (wild type) (natural protein) EDELYRQSLEIISRYLREQATGAKDTKPMGRSGATSRKALETLRRVGDGVQRNHETAFQGMLRKLDIKNEDDVKSLSRVMIHVFSDGVTNWGRIVTLISFGAFVAKHLKTINQESCIEPLAESITDVLVRTKRDWLVKQRGWDGFVEFFHVEDLEGG,3 ± 0.1
